Assays:
platelet-rich thrombus = assay: Ex vivo fibrinolysis of platelet-rich plasma clots (fluorescence release, clot weight loss); design: species or system Human; details: 17H/37° C. incubation; p<0.01; FIG. 1
Description: (§1) Human platelet-rich and -poor plasma (PRP and PPP) were obtained from citrated blood after two centrifugation steps: at 120 g for 15 minutes followed by a second centrifugation step at 1200 g for 12 min. PRP was adjusted to 3×10^8 platelets per mL with poor platelet plasma (PPP) and supplemented with 75 μg/mL of fluorescein isothiocyanate-fibrinogen. Clot formation was induced by adding 10 mmol/L CaCl2 in glass tubes and incubated for 1 hour at 37° C. After retraction, clots were washed in Hank's buffer (Sigma), rapidly dryed on an absorbent paper and weighed. To assess fibrinolysis, PRP or PPP clots were incubated in Hanks' buffer containing the vectorized t-PA complexes (corresponding to 10 UI of t-PA, or 1.72 μg/mL) for 1 h at room temperature. Clots were transferred in a new eppendorf containing 500 μl of Hank's buffer supplemented with 1 μM of human plasminogen. The kinetic of fibrinolysis was evaluated by measuring the release of fluorescence from the clot to the supernatant with a spectrofluorimeter (485/520 nm). […]
(§2) Aminofucoidans were used in variables molecular ratio to t-PA (10 UI (corresponding to 1.72 μg/ml): the 1/10 ratio was used for mono-amine fucoidans and 1/5 for poly-amine fucoidans. Evaluation criteria were the initial lysis kinetic (appearance of fluorescence in supernatant) and the final thrombus weight loss at 17H/37° C. incubation. […]

platelet-poor thrombus = assay: Ex vivo fibrinolysis of platelet-poor plasma clots (fluorescence release, clot weight loss); design: species or system Human
Description: as §1, §2

[1] = tested on: thrombus performed in total blood, including Red Blood Cells; assay: Rotative thromboelastography (Rotem) lysis of thrombus in total blood; details: plasma PAI-1 present, ratio (t-PA/fuco) 1/5 or 1/10
Excerpt: Thromboelastography experiments have been carried out on a rotative thromboelastograph (Rotem®) as described in Boulaftali et al. (Boulaftali Y, Ho Tin Noe B, Pena A, Loyau S, Venisse L, Francois D, Richard B, Arocas V, Collet J P, Jandrot-Perrus M, Bouton M C. PLatelet Protease Nexin-1, a Serpin that Strongly Influences Fibrinolysis and Thrombolysis. Circulation. 2011; 123:1326-1334) and Mallet et al. (Mallet S V, Cox D J A. Thromboelastograph Analysis. British J of anaest. 1992; 69:307-313).
In a third series of in vitro experiments, the ability of aminofucoidans to accelerate the lysis of a thrombus performed in total blood, including Red Blood Cells, has been tested with rotative thromboelastography (Rotem®). In this experiment dilysine-fucoidan vectorized t-PA, in a ratio (t-PA/fuco) of 1/5 or 1/10 increased the thrombus lysis to 75% as compared to t-PA alone (55%). In this experiment, the plasma PAI-1 was present.

mesenteric thrombi = assay: FeCl3-induced mesenteric vessel thrombosis, intravital imaging of thrombolysis; type: in vivo; details: mice, intravenous; 1 hour following FeCl3-induced injury (~45 min following treatment)
Excerpt: The group has recently published the ability of intravital microscopy to follow the lysis of thrombus in vivo. Thus, validation of t-PA vectorization by amino-fucoidans with intravital microscopy has been carried out according to the protocols described in Boulaftali et al. (Boulaftali et al., 2011, Platelet protease nexin-1, a serpin that strongly influences fibrinolysis and thrombolysis. Circulation; Boulaftali et al., 2012, The mouse dorsal skinfold chamber as a model for the study of thrombolysis by intravital microscopy. Thromb Haemost).
The thrombus is induced by local application of iron oxide on exposed vessels in mice. Fluorescent t-PA or a mixture of amino-fucoidans and t-PA are intravenously injected after iron oxide local application The fluorescence of t-PA and thrombus lysis were followed by intravital transillumination of the mesenteric tissue.
More precisely, after anesthesia (100 mg/kg ketamine, 10 mg/kg xylazine) and laparotomy, mouse mesenteric vessels were exposed for induction of thrombosis and video-microscopic intravital observation. […] Platelet deposition and thrombus growth were monitored for 15 minutes following injury and fluorescent t-PA±DiLysine-fucoidan was then injected intravenously to thrombolysis of the partially occlusive-formed thrombi. […]

[2] = Product No 173 from American diagnostic; cited from earlier work

B1: t-PA: Single-chain recombinant tissue plasminogen activator, secreted by CHO cells transfected with human t-PA cDNA (American diagnostica) (protein, listed as Homo sapiens)
chain: MDAMKRGLCCVLLLCGAVFVSPSQEIHARFRRGARSYQVICRDEKTQMIYQQHQSWLRPVLRSNRVEYCWCNSGRAQCHSVPVKSCSEPRCFNGGTCQQALYFSDFVCQCPEGFAGKCCEIDTRATCYEDQGISYRGTWSTAESGAECTNWNSSALAQKPYSGRRPDAIRLGLGNHNYCRNPDRDSKPWCYVFKAGKYSSEFCSTPACSEGNSDCYFGNGSAYRGTHSLTESGASCLPWNSMILIGKVYTAQNPSAQALGLGKHNYCRNPDGDAKPWCHVLKNRRLTWEYCDVPSCSTCGLRQYSQPQFRIKGGLFADIASHPWQAAIFAKHRRSPGERFLCGGILISSCWILSAAHCFQERFPPHHLTVILGRTYRVVPGEEEQKFEVEKYIVHKEFDDDTYDNDIALLQLKSDSSRCAQESSVVRTVCLPPADLQLPDWTECELSGYGKHEALSPFYSERLKEAHVRLYPSSRCTSQHLLNRTVTDNMLCAGDTRSGGPQANLHDACQGDSGGPLVCLNDGRMTLVGIISWGLGCGQKDVPGVYTKVTNYLDWIRDNMRP
modifications: single-chain recombinant; /mol_type=“protein” /organism=“Homo sapiens”
loss of platelet-rich thrombus weight (platelet-rich thrombus): 30%
thrombi weight loss at 17H (platelet-poor thrombus): 97%
thrombus lysis [1]: 55%
vessel occlusion / perfusion of injured vessels (mesenteric thrombi): occlusive thrombosis of injured vessels had occurred in all 3 mice
specific activity [2]: approximately 580 000 UI/mg

Source: patent US9999679B2, “Aminofucoidan as a vector for fibrinolysis in thrombotic diseases” (INSTITUT NATIONAL DE LA SANTE ET DE LA RECHERCHE MEDICALE, priority 2013, dated 2018)
